# Measured values from US5376632A, “Cyclodextrin based erythropoietin formulation” (priority 1992, dated 1994).
# What was measured:
# [1] = -80° C.; cited from earlier work
# [2] = Irritation at the site of injection and clinical safety in healthy volunteers (Example 8); format: in vivo, human (healthy male volunteers); settings: s.c.
# Description: Bioavailability of erythropoietin after subcutaneous administration of erythropoietin in a hydroxypropyl-β-cyclodextrin formulation in comparison with formulations using human serum albumin in healthy volunteers was assessed in the following study.
# Six healthy male volunteers with ages ranging between 30 and 40 (median 32) years, body weights between 69 and 80 (median 75) kg were administered subcutaneously in the upper arm 1 ml of an EPO solution (4000 I.U./ml) according to a randomized cross-over design. A four-week interval occured between the two tests. The two formulations of EPO were
# Irritation at the site of injection was scored before and 2, 4, and 24 hours after each administration. No oedema, erythema, itching or pain was reported in any of the volunteers at any time during the whole study. Both formulations are therefore equally well tolerated.
substance,measurement,setting,value
EPO: circulating glycoprotein hormone which induces an increase in red cell mass,decrease in activity in aqueous solution,[1],substantial decrease in activity
same,blood pressure or heart rate,[2],Nor did subcutaneous administration of EPO influence blood pressure or heart rate
same,haematology and serum biochemistry,[2],No clinically important changes
